Source: patent publication US20110268740A1

Key:
[1] = target: M2e-VN (Influenza A virus A/VN/1203/04 (H5N1)); assay: ELISA, apparent affinity, purified scFv-msFcγ2c on immobilised M2e-VN

Binder | EC50 [1] | EC50 (scFv-F052-msFcγ2c) | EC50 (scFv-D005-msFcγ2c) | EC50 (scFv-E040-msFcγ2c)
scFv-D005-msFcγ2c (Fc fusion) DADPAQAAELVMTQSPDSLAVSLGERATINCKSSQSVLYTSNNKNYLGWYQQKPGQPPNLLIYWASTRESGVPDRFSGSGSGTDFTLTINSVQAEDVAVYYCQQYFMTPITFGQGTRLEIKGGSSRSSSSGGGGSGGGGEVQLVESGGALVQPGRSLRLSCRTSGLNFGDYPINWVRQAPGKGLEWVGFIKSKSYGVTTEFAASVEGRFTISRDDSRGIAYLQMNSLKTEDTAVYYCTSSSGFLYYFDYWGQGTLVTVSSASTKGPSVTSGQAGRKLEPRVPITQNPCPPLKECPPCAAPDLLGGPSVFIFPPKIKDVLMISLSPMVTCVVVDVSEDDPDVQISWFVNNVEVHTAQTQTHREDYNSTLRVVSALPIQHQDWMSGKEFKCKVNNRALPSPIEKTISKPRGPVRAPQVYVLPPPAEEMTKKEFSLTCMITGFLPAEIAVDWTSNGRTEQNYKNTATVLDSDGSYFMYSKLRVQKSTWERGSLFACSVVHEGLHNHLTTKTISRSLGK | 0.0515 nM |  |  | 
scFv-E040-msFcγ2c (Fc fusion) DADPAQAAELVMTQSPDSLAVSLGERATINCKSSQSVLYSSNNENYLAWYQQKPGQPPKLLIYWASTRESGVPDRFSGSGSGTDFTLTINSVQAEDVAVYYCQQYFMTPITFGQGTRLEIKGGSSRSSSSGGGGSGGGGEVQLLESGGALVQPGRSLRLSCRTSGLNFGDYPINWVRQAPGKGLEWVGFIKSKSYGVTTEFAASVEGRFTISRDDSRGIAYLQMNSLKTEDTAVYYCTSSSGFLYYFDYWGQGTLVTVSSASTKGPSVTSGQAGRKLEPRVPITQNPCPPLKECPPCAAPDLLGGPSVFIFPPKIKDVLMISLSPMVTCVVVDVSEDDPDVQISWFVNNVEVHTAQTQTHREDYNSTLRVVSALPIQHQDWMSGKEFKCKVNNRALPSPIEKTISKPRGPVRAPQVYVLPPPAEEMTKKEFSLTCMITGFLPAEIAVDWTSNGRTEQNYKNTATVLDSDGSYFMYSKLRVQKSTWERGSLFACSVVHEGLHNHLTTKTISRSLGK | 0.0464 nM |  |  | 
SLLTEVETPTRNEWECRCSDSSD (modifications not checked) [M2e-VN] |  | 50.8 µM | 32.5 µM | 43.2 µM
scFv-F052-msFcγ2c (Fc fusion) DADPAQAAERVMTQSPDALAVSLGERATINCKSSQSLLYSSNNKNYLAWYQKKPGQPPKLLIYWASTRESGVPDRFSGSGSGTEFTLTINSVQAEDVAVYYCQQYFMTPITFGQGTKLEIKGGSSRSSSSGGGGSGGGGQVQLQESGGALVQPGRSLRLSCRTSGLNFGDYPINWVRQAPGKGLEWVGFIKSKSYGVTTEFAASVEGRFTISRDDSRGIAYLQMNSLKTEDTAVYYCTSSSGFLYYFDYWGQGTLVTVSSASTKGPSVTSGQAGRKLEPRVPITQNPCPPLKECPPCAAPDLLGGPSVFIFPPKIKDVLMISLSPMVTCVVVDVSEDDPDVQISWFVNNVEVHTAQTQTHREDYNSTLRVVSALPIQHQDWMSGKEFKCKVNNRALPSPIEKTISKPRGPVRAPQVYVLPPPAEEMTKKEFSLTCMITGFLPAEIAVDWTSNGRTEQNYKNTATVLDSDGSYFMYSKLRVQKSTWERGSLFACSVVHEGLHNHLTTKTISRSLGK | 0.0459 nM |  |  | 
